From article PMC6775779

Target: HIV-1 integrase Q214C/Q221C double mutant, in virions (HIV-1)
Assay: cross-linking

Substance: HIV-1 integrase Q214C/Q221C double mutant, in virions (enzyme)
- fold increase of the dimer percentage over WT: 3 fold
- stoichiometry N: 2
